Test results from patent US20230331816A1, “A METHOD FOR PREPARING PORCINE MYOGLOBIN USING ESCHERICHIA COLI” (iNtRON Biotechnology, Inc., priority 2020, published 2023).

System: iron-deficiency-anemia-induced animals
Assay type: in vivo, Sprague-Dawley rats
Method: The composition containing porcine myoglobin prepared according to the present invention was administered to iron-deficiency-anemia-induced animals, whereby the effectiveness of the composition containing porcine myoglobin on alleviating anemia was evaluated. Specifically, after 2 weeks acclimation period, thirty 9-week old Sprague-Dawley rats (female) were divided into 3 groups of 10 rats per group, among which one group was fed with normal feed in an amount of 10% of body weight daily for […] (Group 1; control), and the remaining two groups were fed with iron-deficient feed in an amount of 10% of body weight daily for 6 weeks to induce iron-deficiency anemia (Group 2 and Group 3). After 6 weeks of feeding, it was confirmed that iron-deficiency anemia was induced in the individual rat belonging to Group 2 and Group 3. Then, one of the anemia-induced groups was orally administered once a day with saline alone (Group 2), and the other anemia-induced group was orally administered once a day with solution containing porcine myoglobin (0.1 mg Fe/500 μl solution, Group 3). The administration continued for 5 weeks. During 5 weeks of administration to Group 2 and Group 3, Group 1 was continuously fed with normal feed, and Group 2 and Group 3 were fed with iron-deficient feed. […] After 5 weeks of administration, blood was collected, and whether anemia was alleviated was evaluated.

[1] = female Sprague-Dawley rats on iron-deficient feed, oral once a day, 0.1 mg Fe/500 μl solution, 5 weeks

B1: porcine myoglobin: porcine myoglobin consisting of a globin of SEQ ID NO: 1 and a heme of formula 1, made with Escherichia coli (protein)
chain: MGLSDGEWQLVLNVWGKVEADVAGHGQEVLIRLFKGHPETLEKFDKFKHLKSEDEMKASEDLKKHGNTVLTALGGILKKKGHHEAELTPLAQSHATKHKIPVKYLEFISEAIIQVLQSKHPGDFGADAQGAMSKALELFRNDMAAKYKELGFQG
modifications: heme; Porcine myoglobin
Effectiveness at alleviating iron-deficiency anemia (conclusion from blood analysis after 5 weeks of administration): effective at alleviating iron-deficiency anemia
Blood test: Hematocrit [1]: 39.8 ± 1.0%
Blood test: Hemoglobin content [1]: 13.7 ± 0.6 g/dL
Weight of rats on 5 weeks after administration [1]: 327.2 ± 3.1 g
